The target of assay [1] is T1, His-tagged RBD (RBD-His) protein of SARS-CoV-2 (SARS-CoV-2, UniProt P0DTC2 319-541). Briefly: BLI.
The target in assay [2] is T1, His-tagged RBD (RBD-His) protein of …. Briefly: BLI. This is another data set of the same source. (In general: In BLI a coated tip is dipped into the sample, and binding shifts an interference pattern.)

Where “and” joins values, the source holds several entries; their conditions need not be identical. Equal values may be shown once.

B1: CoV2-14 (antibody, V domains shown)
VH: EVQLQQSGPGLVKPSQTLSLTCAISGDSVSSNSAAWNWIRQSPSRGLEWLGRTYYRSKWYNDYAVSVKSRITINPDTSKNQFSLQLNSVTPEDTAVYYCAREEQQLVHDYYYYGMDVWGQGTMVTVSS
VL: QAVVTQPASVSGSPGQSITISCTGTSSDIGAYNYISWYQQHPGKAPKLIIYEVSNRPSGISYRFSGSKSGNTASLTISGLQAEDEANYYCSSYAGSISFGGGTKVTVL
What is called koff is the first-order rate constant of dissociation. As usually defined, the Kd is the free concentration of one partner at which half of the binding sites on the other are occupied at equilibrium, for simple one-to-one binding. The low end stands for a tighter complex, the high end for a looser complex. Turning to B1, the koff in assay [1] was 0.000222 s⁻¹ and 0.000552 s⁻¹. In addition, in assay [2], the Kd is 620 pM and 580 pM.

B2: CoV2-06 (antibody, V domains shown)
VH: QVELQESGPGLVKPSGTLSLTCAVSGGSISSNNWWTWVRQPPGKGLEWIGEIHHSGGTNYNPSLKSRVTMSVDKSKNQFSLNLYSVTAADTAVYYCTRDRAGGTYSGFDFWGQGTLVTVSS
VL: QAVVTQPASVSGSPGQSITISCTGTSSDVGGYNYVSWYQQHPGKAPKLMIYDVSNRPSGVSNRFSGSKSGNTASLTISGLQAEDEADYYCSSYTSSSTVVFGGGTKVTVL
In the case of B2, in assay [2], the dissociation constant (Kd) is 270 pM and 90 pM.

Values taken from article PMC9499943 (2022).
